Data on two molecules can be found in patent publication EP1900816A2.

For assay [1], the target named is B7-1 on the surface of mouse cells (WEHI 231, undifferentiated ES cells) (mouse) (UniProt Q00609). As to the kind of experiment: flow cytometry, titration on WEHI 231 cells, which carry both B7-1 and B7-2. On the technique in general: In flow cytometry, cells or beads pass a laser one at a time.
Assay [2] concerns the target T1, B7-2 on the surface of WEHI 231 cells (mouse) (UniProt P42082).
T1 sequence (looked up): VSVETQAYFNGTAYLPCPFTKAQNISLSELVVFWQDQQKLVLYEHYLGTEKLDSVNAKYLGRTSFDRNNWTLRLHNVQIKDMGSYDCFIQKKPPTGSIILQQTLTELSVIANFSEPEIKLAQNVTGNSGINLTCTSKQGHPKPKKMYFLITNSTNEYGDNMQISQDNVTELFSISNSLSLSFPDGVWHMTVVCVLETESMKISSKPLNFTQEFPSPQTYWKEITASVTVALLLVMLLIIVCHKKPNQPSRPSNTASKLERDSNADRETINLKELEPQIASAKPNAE
The assay is described as above.

The target of assay [3] is ICOS-ligand (GL50) on the surface of mouse cells (WEHI 231, undifferentiated ES cells, splenocytes) (mouse) (UniProt Q9JHJ8). The experiment in a line: flow cytometry, titration on WEHI 231 cells.
Chain of UniProt Q9JHJ8 (Q9JHJ8 44-322): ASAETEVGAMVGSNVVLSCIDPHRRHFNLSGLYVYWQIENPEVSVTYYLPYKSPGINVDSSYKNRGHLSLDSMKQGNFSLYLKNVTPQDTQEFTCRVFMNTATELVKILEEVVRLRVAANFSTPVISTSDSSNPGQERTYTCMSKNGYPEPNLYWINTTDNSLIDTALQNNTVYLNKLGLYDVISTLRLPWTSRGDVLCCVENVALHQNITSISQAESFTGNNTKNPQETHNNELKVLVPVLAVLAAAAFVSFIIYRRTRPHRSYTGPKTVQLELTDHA
Assay [4] has the same target. The experiment in a line: flow cytometry, indirect staining of undifferentiated CCE ES cells.
Assay [5] shares this target. As to the kind of experiment: two-colour flow cytometry, Balb/C splenocytes, cells stained by anti-CD3.
Assay [6] has the same target. The experiment in a line: two-colour flow cytometry, Balb/C splenocytes, cells stained by anti-CD4.
Assay [7] has the same target. The experiment in a line: two-colour flow cytometry, Balb/C splenocytes, cells stained by anti CD40.
The target is the same in assay [8]. As to the kind of experiment: two-colour flow cytometry, Balb/C splenocytes, cells stained by anti CD69.
For assay [9] the target is unchanged. As to the kind of experiment: two-colour flow cytometry, Balb/C splenocytes, cells stained by anti-CD19.
The target is the same in assay [10]. As to the kind of experiment: two-colour flow cytometry, Balb/C splenocytes, cells stained by anti-CD24.
Assay [11] shares this target. As to the kind of experiment: two-colour flow cytometry, Balb/C splenocytes, cells stained by anti-CD8a.
The target is the same in assay [12]. The experiment in a line: two-colour flow cytometry, RAG1-/- splenocytes, cells stained by anti-CD4.
Assay [13] shares this target. The experiment in a line: two-colour flow cytometry, Balb/C splenocytes, cells stained by anti-CD11B.
Assay [14] shares this target. The experiment in a line: two-colour flow cytometry, Balb/C splenocytes, cells stained by anti-CD11C.
For assay [15] the target is unchanged. The experiment in a line: two-colour flow cytometry, RAG1-/- splenocytes, cells stained by anti CD69.
Assay [16] shares this target. The experiment in a line: two-colour flow cytometry, RAG1-/- splenocytes, cells stained by anti-CD24.
The target is the same in assay [17]. As to the kind of experiment: two-colour flow cytometry, Balb/C splenocytes, cells stained by anti-pan NK.
The target is the same in assay [18]. As to the kind of experiment: two-colour flow cytometry, RAG1-/- splenocytes, cells stained by anti-CD11B.
Assay [19] has the same target. As to the kind of experiment: two-colour flow cytometry, RAG1-/- splenocytes, cells stained by anti-CD11C.
The target is the same in assay [20]. The experiment in a line: two-colour flow cytometry, RAG1-/- splenocytes, cells stained by anti-pan NK.
For assay [21] the target is unchanged. The experiment in a line: two-colour flow cytometry, Balb/C splenocytes, cells stained by anti class II.
Assay [22] has the same target. The experiment in a line: two-colour flow cytometry, RAG1-/- splenocytes, cells stained by anti class II.
For assay [23] the target is unchanged. As to the kind of experiment: two-colour flow cytometry, Balb/C splenocytes, cells stained by anti-CD45R/B220.
For assay [24] the target is unchanged. The experiment in a line: two-colour flow cytometry, RAG1-/- splenocytes, cells stained by anti-CD45R/B220.

Chain of UniProt Q00609 (Q00609 38-306): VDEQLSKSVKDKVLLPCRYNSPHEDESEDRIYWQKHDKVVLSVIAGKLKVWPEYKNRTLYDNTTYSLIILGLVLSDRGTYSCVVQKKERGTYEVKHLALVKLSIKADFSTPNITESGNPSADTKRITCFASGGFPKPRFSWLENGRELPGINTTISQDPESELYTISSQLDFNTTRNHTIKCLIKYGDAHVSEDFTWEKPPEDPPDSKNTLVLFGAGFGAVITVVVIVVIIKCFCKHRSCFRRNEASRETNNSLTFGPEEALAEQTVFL

In assay [1], “mCTLA4-mIgG2am fusion protein (from UniProt P09793 36-161) (Fc fusion)” came in with a concentration at which staining was clearly detectable of 8 ng/mL and a fold binding affinity against mICOS-mIgG2am binding to GL50 on WEHI cells greater than 100 fold. In [2], this molecule displayed a concentration at which staining was clearly detectable of 8 ng/mL and a fold binding affinity against mICOS-mIgG2am binding to GL50 on WEHI cells greater than 100 fold.

B1: mICOS-mIgG2am fusion protein (Fc fusion)
chain: EINGSADHRMFSFHNGGVQISCKYPETVQQLKMRLFREREVLCELTKTKGSGNAVSIKNPMLCLYHLSNNSVSFFLNNPDSSQGSYYFCSLSIFDPPPFQERNLSGGYLHIYESQLCCQLKLEPRGPTIKPCPPCKCPAPNLEGGPSVFIFPPKIKDVLMISLSPIVTCVVVDVSEDDPDVQISWFVNNVEVHTAQTQTHREDYNSTLRVVSALPIQHQDWMSGKAFACAVNNKDLPAPIERTISKPKGSVRAPQVYVLPPPEEEMTKKQVTLTCMVTDFMPEDIYVEWTNNGKTELNYKNTEPVLDSDGSYFMYSKLRVEKKNWVERNSYSCSVVHEGLHNHHTTKSFSRTPGK
In assay [3], B1 registered a concentration from which staining was minimally detectable of 1 µg/mL. Also, the fluorescence shift over background in assay [4] amounted to 0.5 log. Further, the % ICOS-lg positive in [5] turned out to be 10%; in [6] it was 8%; in assay [7] it was 97%; in assay [8] it was 25%; in [9], 97%; in assay [10], 94%. For the same molecule, the % ICOS-lg positive in assay [11] came to 10%; in [12], 45%; in [13] it was 26%; in assay [14], 43%; in assay [15], 5%; in assay [16] it was 28%. The % ICOS-lg positive in [17] stood at 20%; in assay [18] it was 31%; in assay [19], 55%; in [20] it was 3%; in assay [21] it was 95%; in assay [22] it was 3%. In addition, the % ICOS-lg positive amounted to 97% in assay [23] and 5% in assay [24].
